Square brackets hold non-standard residues; d marks the D form. Ends that are not written are not given here. β3hR = N=C(N)NCCC[C@H](N)CC(=O)O
B1: UV007 (peptide)
peptide: CDEAVRAIPKMYSTAPPGDFEEIPDDAIEE
notes: Ultravariegin with Cys at the N-terminus
B2: IS20 (peptide)
peptide: ISKQGLGGDFEEIPSDEIIE
notes: Avathrin residues 11-30; also called C-terminal cleavage product of avathrin
B3: UV011 (peptide)
peptide: MYSTAPPGDFEEIPDDAIEE
notes: also called C-terminal cleavage product of ultravariegin
B4: QT26 (peptide)
peptide: QTAVPKISKQGLGGDFEEIPSDEIIE
notes: Avathrin without its four N-terminal residues

Tests used:
[1] = biological target: T1, human α-thrombin (recombinant) (human, UniProt P00734 328-363; P00734 364-622); assay: cell-based or functional assay
[2] = biological target: T1, human α-thrombin (recombinant); assay: cell-based or functional assay; remark: listed apart in the source
[3] = biological target: T1, human α-thrombin (recombinant); assay: cell-based or functional assay; remark: listed apart in the source
[4] = biological target: T1, human α-thrombin (recombinant); assay: thrombin amidolytic assay with S2238, tight-binding fit
Experimental: A and C. […] B and D. Residual thrombin amidolytic activities in presence of UV003 and UV004 were measured at different concentrations of S2238 and their Kᵢ were determined.
(§1) Thrombin amidolytic activity assays for all peptides were performed in 96-wells microtiter plates in 50 mM Tris buffer (pH 7.4) containing 100 mM NaCl and 1 mg/ml bovine serum albumin. […] The rates of formation of p-nitroaniline were followed by measuring the absorbance at 405 nm for 10 min with a Tecan InfinitePro M200 microplate reader from Tecan (Mannedorf, Switzerland). Dose-response curves were fitted using the GraphPad Prizm software (San Diego, Calif., USA) to calculate IC50 values and Hill coefficients. To measure the inhibitory constants, different concentrations of S2238 were used and the residual velocities were determined using the Morrison's tight binding equation. Inhibition of thrombin fibrinogenolytic activity of peptides were tested by measuring absorbance at 650 nm using a Sunrise microplate reader from Tecan (Mannedorf, Switzerland) as described previously [Koh C Y, et al., J Biol Chem 282: 29101-13 (2007)].

[5] = biological target: T1, human α-thrombin (recombinant); assay: comparison of Ki values, thrombin amidolytic assay
Experimental: (§3) Thrombin amidolytic activity assays for all peptides were performed in 96-wells microtiter plates in 50 mM Tris buffer (pH 7.4) containing 100 mM NaCl and 1 mg/ml bovine serum albumin. […] Dose-response curves were fitted using the GraphPad Prizm software (San Diego, Calif., USA) to calculate IC50 values and Hill coefficients. To measure the inhibitory constants, different concentrations of S2238 were used and the residual velocities were determined using the Morrison's tight binding equation.

[6] = biological target: T1, human α-thrombin (recombinant); assay: thrombin amidolytic assay with S2238, Morrison tight-binding fit, non-competitive
Experimental: (§4) Each data point is the mean±S.D. of at least three independent experiments. […] Each data point is the mean±S.D. of at least three independent experiments. […] Each data point is the mean±S.D. of at least three experiments.
as §3

[7] = biological target: T1, human α-thrombin (recombinant); assay: thrombin amidolytic assay with S2238, double reciprocal (Lineweaver-Burke) plot
Experimental: (§2) Each data point is the mean±S.D. of at least three independent experiments.
as §1, with “To measure the inhibitory constants, different concentrations of S2238 were used and the residual velocities were determined using the Morrison's tight binding equation.” left out, “(2007)]. […] After different incubation times, reactions were quenched with 1% TFA (pH 1.8) and loaded onto a Jupiter Proteo column (4 μm, 90 Å, 100×1.0 mm) attached to a Dionex nano-HPLC system from Thermo Fisher Scientific (Waltham, Mass., USA) and eluted using an acetonitrile gradient with 0.05% TFA and 99.95% MilliQ water as eluent A and 0.05% TFA, 19.95% MilliQ water and 80% ACN as eluent B. Masses of all peaks were measured to identify cleavage products, which were subsequently quantified by integrating the peaks and calculating the area under the curves. […]” for “(2007)].”

[8] = biological target: T1, human α-thrombin (recombinant); assay: comparison of Ki values
Experimental: as §3

[9] = biological target: T1, human α-thrombin (recombinant); assay: thrombin amidolytic assay with S2238, tight-binding fit; remark: listed apart in the source
Experimental: as §2
as §1, with “(2007)]. […] After different incubation times, reactions were quenched with 1% TFA (pH 1.8) and loaded onto a Jupiter Proteo column (4 μm, 90 Å, 100×1.0 mm) attached to a Dionex nano-HPLC system from Thermo Fisher Scientific (Waltham, Mass., USA) and eluted using an acetonitrile gradient with 0.05% TFA and 99.95% MilliQ water as eluent A and 0.05% TFA, 19.95% MilliQ water and 80% ACN as eluent B. Masses of all peaks were measured to identify cleavage products, which were subsequently quantified by integrating the peaks and calculating the area under the curves. To measure the effect of different pre-incubation times on the thrombin inhibitory activity, amidolytic assays were performed for various incubation times (up to 36 h).” for “(2007)].”

[10] = biological target: T1, human α-thrombin (recombinant); assay: thrombin amidolytic assay with S2238, Morrison tight-binding fit, competitive
Excerpt: Data were fitted to the Morrison tight binding equation using GraphPad Prizm software. Each data point is the mean±S.D. of at least three experiments.
as §4

Row | Binder | IC50, inhibition of thrombin amidolytic activity (S2238) [1] [nM] | IC50, inhibition of thrombin amidolytic activity [3] [nM] | Ki [4] [nM] | also measured
1 | SGGHQTAVPKISKQGPPGDFEEIPSDEIIE [avathrin L16P, G17P] | 181 |  |  | fold drop in activity against avathrin (amidolytic IC50) [2]: > 25 fold
2 | SDEAVRAIPKMYSTAPPGDFEEIPDDAIEEGCCC (Ultravariegin with C-terminal GCCC) [UV015] |  | 1 | 0.00852 | 
3 | SDEAVRAEPKMHKTAPPGDFEEIPDDAIEE [UV004] |  | 0.46 | 0.00455 | 
4 | B1 |  | 0.601 | 0.00627 | 
5 | SDEAVRAIPKMYSTAPPGDFEEIPDDEIEE (Ultravariegin Ala27Glu) [UV012] |  | 0.94 |  | 
6 | SDEAVRAIPKMYSQAPPGDFEEIPDDAIEE (Ultravariegin Thr14Gln) [UV013] |  | 0.341 |  | 
7 | SDQGDVAIPKMYSTAPPGDFEEIPDDAIEE [UV003] |  | 0.6 | 0.00421 | 
8 | SDEAVRAIPKMYSTAPPGDFEEIPDDAIEECA (Ultravariegin with C-terminal CA) [UV008] |  | 1.82 | 0.0786 | 
9 | SDEAVRAIPKMYSTAPPGDFEEIPEEYLDDES [UV005] |  | 0.91 | 0.016 | fold drop in affinity against ultravariegin [5]: ~3.6 fold
10 | B2 | 12.2 |  |  | IC50, inhibition of thrombin amidolytic activity, 0 min [2]: 12.4 nM; IC50, inhibition of thrombin amidolytic activity, 10 min pre-incubation [2]: 22.7 nM; Ki [6]: 5.76 nM
11 | SGGHQTAVP[β3hR]ISKQGLGGDFEEIPSDEIIE [β-avathrin] | 332 |  |  | fold loss of potency against avathrin (amidolytic IC50) [2]: > 100 fold; Ki [7]: 32 nM
12 | B3 |  | 1.66 | 1.39 | fold better Ki than the avathrin C-terminal cleavage product IS20 [8]: ~4 fold; fold better Ki than the variegin C-terminal cleavage product MH22 [8]: ~10 fold
13 | SDQGDVAEPKMYSTAPPFDFEAIPEEYLDDES [Variegin YS] |  | 3.16 | 0.671 | 
14 | MYSTAPPGDFEEIPDDAIEEGCCC (UV011 with C-terminal GCCC) [UV014] |  | 1.98 | 2.47 | 
15 | SDGHDTAVPKISKQGLGGDFEEIPSDEIIE [avathrin G2D, Q5D] | 13 |  |  | Ki [9]: 0.932 nM; fold weaker inhibition against avathrin and QT26 [2]: < 2 fold
16 | SGGHQTAVPKIHKQGLGGDFEEIPSDEIIE (also called 512H) [avathrin S12H] | 18.5 |  |  | Ki [9]: 1.23 nM; fold loss of potency against avathrin (amidolytic IC50) [2]: 2 fold
17 | SGGHQTAVPKIAKQGLGGDFEEIPSDEIIE [avathrin S12A] | 101 |  |  | fold change of IC50 against avathrin [2]: 20 fold; fold drop in potency against avathrin (amidolytic IC50) [2]: > 10 fold; Ki [7]: 6.08 nM
18 | SGGHQTAVPRISKQGLGGDFEEIPSDEIIE (also called K10R-avathrin) [avathrin K10R] | 1.15 |  |  | Ki [9]: 0.172 nM; fold gain in activity against avathrin [2]: 5 fold
19 | B4 | 8.94 |  |  | Ki [10]: 0.76 nM; IC50, inhibition of thrombin amidolytic activity, 10 min pre-incubation [2]: 13.5 nM
